Results taken from article PMC5117717 (2016).

Experiments:
[1] = target: RadA-ct (Pyrococcus furiosus); experiment: ITC
[2] = target: HumRadA33 (Pyrococcus furiosus, UniProt O74036 108-349, S167K | V168A | I169M | W170Y | N175G | I182L | R183L | D192S | P193G | D194S | …); experiment: ITC

## Ac-NLGTFMRADEYLKKRA-NH2 [RadA oligomerisation peptide]
[1]
  Kd: 0.6 µM
[2]
  Kd: 13 µM
